Article PMC7369618

Target: pyruvate kinase M2 (PKM2), endogenous in mouse macrophages (mouse (endogenous in BMDMs or Raw 264.7)) (UniProt P52480)
Test: cross-linking

Chain of pyruvate kinase M2 (PKM2), endogenous in mouse macrophages, P52480 1-531 (enzyme; other documents disagree on this pair) (P52480 whole entry): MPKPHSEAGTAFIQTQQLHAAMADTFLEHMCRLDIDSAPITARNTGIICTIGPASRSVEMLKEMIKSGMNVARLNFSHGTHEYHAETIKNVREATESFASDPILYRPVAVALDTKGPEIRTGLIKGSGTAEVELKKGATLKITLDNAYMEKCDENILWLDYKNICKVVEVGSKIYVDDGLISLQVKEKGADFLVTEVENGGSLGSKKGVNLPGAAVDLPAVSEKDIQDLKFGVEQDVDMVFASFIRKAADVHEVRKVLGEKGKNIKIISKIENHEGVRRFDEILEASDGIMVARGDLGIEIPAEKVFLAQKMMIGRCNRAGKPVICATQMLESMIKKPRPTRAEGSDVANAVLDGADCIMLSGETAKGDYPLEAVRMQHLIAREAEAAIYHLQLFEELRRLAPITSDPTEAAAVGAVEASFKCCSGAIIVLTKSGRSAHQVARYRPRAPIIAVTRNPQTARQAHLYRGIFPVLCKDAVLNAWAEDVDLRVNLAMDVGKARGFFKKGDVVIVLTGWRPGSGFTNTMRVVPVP

Which stoichiometry N does the source give for “pyruvate kinase M2 (PKM2), endogenous in mouse macrophages, P52480 1-531 (enzyme; other documents disagree on this pair)” here?
The stoichiometry N was 4.
